Measurements from patent US20250032629A1, “NOVEL NUCLEOLIN-BINDING PEPTIDE AND USE THEREOF” (ANYGEN CO., LTD., priority 2020, published 2025).
Ends that are not written are not given here.

Assays:
[1] = test system: Cancer cells; experiment: ELISA for the affinities of AGM-330 and its variants on cancer cells; assay type: cell-based; conditions: biotin-conjugated PEGylated peptides, 2 hours, read at 450
Protocol: Then, avidin-HRP was attached through a high-affinity avidin-biotin interaction, and the TMB substrate was converted to blue through HRP enzyme. Then, the reaction was terminated by adding an acid, and the affinities of the 13 peptides were assessed by ELISA by reading the wells at […].
Cancer cells (1×10^4 cells/well) were cultured in 96-well plates for 24 hours. AGM-330 and the 12 PEGylated peptides shown Table 2 were biotin-conjugated, and the cells were treated with increasing concentrations of the 13 peptides for 2 hours.
(§1) Thereafter, avidin-HRP was attached through a high-affinity avidin-biotin interaction, and the TMB substrate was converted to blue color through HRP enzyme. Then, the reaction was terminated by adding an acid, and the affinities of the 13 peptides were assessed by ELISA by reading the wells at […].

[2] = target: NCL (Homo sapiens, UniProt P19338); experiment: siRNA-mediated knockdown of NCL (real-time PCR, Western blot); assay type: cell-based
[3] = test system: MDA-MB-231; experiment: Whole-cell binding (cell-growth-on-bead) assay of screened peptide beads; assay type: cell-based, human
Protocol: (§2) Here, multiple breast and colorectal cancer cells and normal breast and colorectal cells were re-suspended at 10^6 cells/ml and incubated with beads. All experiments were repeated 3 times, and the scale bar is 200 μm. […] Here, nuclei were stained with DAPI (blue), and scale bar is 50 μm. […] Here, a whole-cell binding assay was performed to determine the cell binding of AGM-330, and the scale bar is 200 μm. […] Fmoc=9-fluorenylmethoxycarbonyl, DMF=dimethylformamide. […] Here, bar graphs represent the mean±SD, and statistical analyses were performed by one-way ANOVA with Dunnett's multiple comparison. *, **, and *** indicate P<0.05, P<0.01, and P<0.001, respectively.
(§3) The beads were washed extensively with double-distilled water and phosphate-buffered saline (PBS; Welgene Inc., Korea) before screening. Cancer cells and normal cells were detached from culture dishes with trypsin/EDTA (Gibco), washed with their corresponding culture medium, resuspended at 10^6 cells/ml, and incubated with OBOC beads in Petri dishes in a humidified CO2 incubator at 37° C. with shaking (60 rpm). Beads bound by cells appeared under a microscope as rosettes with a central bead covered by one or more layers of cells. The positive beads were picked by pipette under an inverted microscope, treated with guanidine-HCL (8 M, 20 min) to remove cells and proteins on the bead surface, and subjected to a second round of screening with normal breast epithelial cells to eliminate false positive binding. Only beads with cell binding at both rounds were sent for peptide sequencing.
(§4) To identify a novel cancer-specific peptide ligand, the present inventors synthesized about 2, 600,000 libraries using 5 g of Tentagel MB NH2 resin (200 μm, 520,000 beads/g; FIG. 3).

[4] = test system: MCF-10A; experiment: as above; assay type: cell-based, human
Protocol: as §2, §3, §4

[5] = test system: MCF-10A and CCD-18Co; experiment: Cell-growth-on-bead assay, normal cell lines; assay type: cell-based, human
Protocol: as §2, §3, §4

[6] = target: T1, membrane nucleolin (NCL) on cancer cells (human, UniProt P19338 2-710); experiment: cell ELISA: biotin-conjugated PEGylated peptide on cancer cells (cell line not given), 2 h, avidin-HRP/TMB, absorbance at 450 nm
T1 construct: whole, on cells; also called membrane NCL; membrane-expressed NCL
Protocol: Cancer cells (1×10⁴ cells/well) were seeded in 96-well plates and cultured for 24 hours, and then the cells were treated with increasing concentrations of 13 biotin-conjugated peptides for 2 hours. Then, avidin-HRP was attached through a high-affinity avidin-biotin interaction, and the TMB substrate was converted to blue through HRP enzyme. Then, the reaction was terminated by adding an acid, and the affinities of the 13 peptides were assessed by ELISA by reading the wells at […].
Cancer cells (1×10⁴ cells/well) were cultured in 96-well plates for 24 hours. AGM-330 and the 12 PEGylated peptides shown Table 2 were biotin-conjugated, and the cells were treated with increasing concentrations of the 13 peptides for 2 hours.
as §1

T1 sequence (P19338 2-710): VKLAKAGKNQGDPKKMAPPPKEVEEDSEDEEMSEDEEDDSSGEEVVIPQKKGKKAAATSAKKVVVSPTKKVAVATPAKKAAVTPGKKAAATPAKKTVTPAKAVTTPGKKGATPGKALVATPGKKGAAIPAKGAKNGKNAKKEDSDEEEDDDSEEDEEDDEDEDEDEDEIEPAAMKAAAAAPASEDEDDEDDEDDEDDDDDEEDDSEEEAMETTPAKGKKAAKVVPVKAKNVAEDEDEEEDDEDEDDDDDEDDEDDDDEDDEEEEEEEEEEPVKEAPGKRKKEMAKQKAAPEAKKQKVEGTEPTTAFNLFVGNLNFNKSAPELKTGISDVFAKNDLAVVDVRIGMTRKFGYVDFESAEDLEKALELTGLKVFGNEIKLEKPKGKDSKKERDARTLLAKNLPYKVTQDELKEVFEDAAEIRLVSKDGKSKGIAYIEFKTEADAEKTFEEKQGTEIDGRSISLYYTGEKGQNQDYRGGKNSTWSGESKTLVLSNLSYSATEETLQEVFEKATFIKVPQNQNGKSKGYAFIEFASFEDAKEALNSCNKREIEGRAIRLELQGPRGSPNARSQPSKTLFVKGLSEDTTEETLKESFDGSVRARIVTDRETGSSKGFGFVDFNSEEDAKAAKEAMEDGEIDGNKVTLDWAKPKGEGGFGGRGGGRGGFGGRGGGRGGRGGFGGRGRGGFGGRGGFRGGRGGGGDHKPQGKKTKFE
NCL, sequence (P19338 whole entry): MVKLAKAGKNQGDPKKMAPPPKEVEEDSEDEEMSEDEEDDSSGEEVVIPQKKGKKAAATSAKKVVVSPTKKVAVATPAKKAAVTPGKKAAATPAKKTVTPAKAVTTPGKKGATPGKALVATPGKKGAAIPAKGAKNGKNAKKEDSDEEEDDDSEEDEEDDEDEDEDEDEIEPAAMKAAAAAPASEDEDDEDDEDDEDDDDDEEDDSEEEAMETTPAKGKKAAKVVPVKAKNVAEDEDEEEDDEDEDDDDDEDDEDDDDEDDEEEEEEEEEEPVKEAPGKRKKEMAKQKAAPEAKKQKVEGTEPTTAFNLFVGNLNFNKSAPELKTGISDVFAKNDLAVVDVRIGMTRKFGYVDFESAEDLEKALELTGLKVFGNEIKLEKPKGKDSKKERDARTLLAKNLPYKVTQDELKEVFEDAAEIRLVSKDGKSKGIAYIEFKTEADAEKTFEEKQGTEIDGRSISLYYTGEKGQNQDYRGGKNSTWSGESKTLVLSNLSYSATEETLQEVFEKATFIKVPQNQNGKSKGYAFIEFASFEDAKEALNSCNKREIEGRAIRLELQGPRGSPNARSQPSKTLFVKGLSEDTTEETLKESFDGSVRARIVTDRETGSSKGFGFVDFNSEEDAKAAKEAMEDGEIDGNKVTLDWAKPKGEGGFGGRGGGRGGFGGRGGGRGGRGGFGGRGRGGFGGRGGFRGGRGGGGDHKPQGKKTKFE

Question: With “RHGAMVYLKLKLK (not fully specified) [SEQ ID NO: 20, AGM-330 variant, tested PEGylated and biotin-conjugated]” as the molecule, how does the “absorbance (binding affinity) compared with AGM-330” value (“absorbance … compared with AGM-330” below) [1] read?
Answer: higher absorbance than AGM-330

Question: Which “absorbance … compared with AGM-330” value [1] does the source give for “RHGA(Nle)VYLK (RHGAXVYLK; norleucine at position 5; AGM-330; Xaa can be any naturally occurring amino acid) [SEQ ID NO: 13]” here?
Answer: higher absorbance than AGM-330

Question: For “RHGAMVFLK (not fully specified) [SEQ ID NO: 15, AGM-330 variant, tested PEGylated and biotin-conjugated]”, which “absorbance … compared with AGM-330” value [1] is on record?
Answer: higher absorbance than AGM-330

Question: “siNCL1: siRNA targeting NCL, sense 5′-GAGCUAACCCUUAUCUGUA(dTdT)-3′ (SEQ ID NO: 21/22) (antisense UACAGAUAAGGGUUAGCUC; dTdT overhangs, further chemistry not given here)” was tested. Which “NCL knockdown efficacy (mRNA)” value ([2]; MDA-MB-231 cells, among siNCL1, siNCL2, siNCL3) did it give?
Answer: highest knockdown efficacy

Question: What about the “basal expression of NCL in cytosolic and cell membrane fractions (Western blotting)” value ([2]; siNCL1-treated cells) of the same molecule?
Answer: potently inhibited

Question: For AVARARRRR (AGM-332), which “binding to MDA-MB-231” value [3] is on record?
Answer: strong preferential binding

Question: And the “binding to the human normal breast cell line MCF-10A” value [4]?
Answer: no or only weak binding

Question: And the “binding to normal cell lines MCF-10A and CCD-18Co” value [5]?
Answer: relatively nonspecific and bound

Question: With “RHGALVYLK (not fully specified) [SEQ ID NO: 12, AGM-330 variant, tested PEGylated and biotin-conjugated]” as the molecule, how does the “absorbance … compared with AGM-330” value [1] read?
Answer: higher absorbance than AGM-330

Question: With ADHRHRRSG (AGM-331) as the molecule, how does the “binding to MDA-MB-231” value [3] read?
Answer: strong preferential binding

Question: What about the “binding to the human normal breast cell line MCF-10A” value [4] of the same molecule?
Answer: no or only weak binding

Question: What about the “binding to normal cell lines MCF-10A and CCD-18Co” value [5] of the same molecule?
Answer: relatively nonspecific and bound

Question: Does RHGAMVYLKLKLK (also: PEGylated, biotin-conjugated (sites not given here)) [AGM-330 variant L10K11L12K13 → Insertion (SEQ ID NO: 20)] bind [6]?
Answer: binds

Question: Does KLYVMAGHR (also: PEGylated (site not given here), biotin-conjugated (site not given here)) [AGM-330 variant Reverse sequence (SEQ ID NO: 19)] bind [6]?
Answer: binds

Question: Does RHGAXVYLK (norleucine (Nle) at position 5; PEGylated; biotin-conjugated (sites not given), also called RHGA(Nle)VYLK) [AGM-330 variant M5 → Nle5 (SEQ ID NO: 13)] bind [6]?
Answer: binds

Question: With RHRHRHGAMVYLK (also: PEGylated (site not given here), biotin-conjugated (site not given here)) [AGM-330 variant R1H2R3H4 → Insertion (SEQ ID NO: 18)] as the molecule, how does the “EC50 (read off the curve)” value [6] read?
Answer: ~2 µM

B1: Biotinylated AGM-330 (peptide)
peptide: RHGAMVYLK
modifications: also: biotin-conjugated (site not given here)
notes: Bait of the pull-down assays; also called AGM-330-biotin; AGM-330-Biotin
Question: For B1, which “EC50 (read off the curve)” value [6] is on record?
Answer: ~2 µM

Question: Does GAMVYLK (also: PEGylated, biotin-conjugated (sites not given here), also called GAMVYLK) [AGM-330 variant R1H2 → Deletion (SEQ ID NO: 16)] bind [6]?
Answer: binds

Question: RHGLMVYLK (also: PEGylated, biotin-conjugated (sites not given here)) [AGM-330 variant A4 → L4 (SEQ ID NO: 11)] was tested. Which “EC50 (read off the curve)” value [6] did it give?
Answer: ~2 µM

Question: KHGAMVYLK (also: PEGylated, biotin-conjugated (sites not given here)) [AGM-330 variant R1 → K1 (SEQ ID NO: 9)] was tested. Which “EC50 (read off the curve)” value [6] did it give?
Answer: ~2 µM

Question: How did the “EC50 (read off the curve)” value [6] turn out when RHGAMAYLK (also: PEGylated (site not given here), biotin-conjugated (site not given here)) [AGM-330 variant V6 → A6 (SEQ ID NO: 14)] was run?
Answer: ~2 µM

Question: How did the “EC50 (read off the curve)” value [6] turn out when RHGALVYLK (also: PEGylated, biotin-conjugated (sites not given here)) [AGM-330 variant M5 → L5 (SEQ ID NO: 12)] was run?
Answer: ~2 µM

Question: For RHGAMVFLK (also: PEGylated (site not given here), biotin-conjugated (site not given here)) [AGM-330 variant Y7 → F7 (SEQ ID NO: 15)], which “EC50 (read off the curve)” value [6] is on record?
Answer: ~2 µM

Question: Which “EC50 (read off the curve)” value [6] does the source give for RRGAMVYLK (also: PEGylated, biotin-conjugated (sites not given here)) [AGM-330 variant H2 → R2 (SEQ ID NO: 10)] here?
Answer: ~2 µM

Question: Does RHRHGAMVYLK (also: PEGylated, biotin-conjugated (sites not given here)) [AGM-330 variant R1H2 → Insertion (SEQ ID NO: 17)] bind [6]?
Answer: binds
